Where a SMILES comes first, the peptide text is derived from it. Where no end group is shown, it is not given here. rhodamine = not defined here; Rhod = not defined here
Key:
[1] = target: CXCR4 receptor (Homo sapiens, UniProt P61073); test: Inhibition of SDF-1α-induced intracellular calcium release (Fura-2/AM) in HeLa and U87 cells; type: cell-based; settings: for Decrease in antagonist potency relative to F-2-2: structure-activity of TM2 peptides
Method: The effect of the peptides on CXCR4-mediated calcium fluxes in HeLa cells that naturally express the CXCR4 receptor and U87 cells stably expressing the CXCR4 receptor was tested as follows. Cells grown on Nunc cover glass chamber slides were incubated with 1 micromolar Fura-2/AM for 20 min in a CO2-incubator, rinsed with PBS and mounted on the stage of a Zeiss Axiovert inverted microscope. [Ca^2+]i measurements were performed using an Attofluor digital imaging system (Atto Instruments, Rockville, Md.). Fluorescence of Fura was excited at alternating wavelength of 340 and 380 nm. […] Calibrations of [Ca^2+]i signals were performed using Ca^2+ standards containing 1 micromolar Fura. CXCR4 antagonists were tested on HeLa cells and U87 cells. Stromal cell-derived factor-1α (SDF-1α) was used as a specific CXCR4 agonist. CCR5 antagonists, which were used in selectivity studies as described below, were tested on HEK (human kidney […]) cells stably expressing the CCR5 receptor and RANTES was used as an agonist. The antagonist activity of the peptides was evaluated by measuring the inhibition of agonist-evoked intracellular Ca^2+i release. These measurements were carried out in Fura-2/AM-treated cells, utilizing an Attofluor digital imaging system as described above. The agonist was SDF-1 α.

[2] = target: T1, CXCR4 receptor (UniProt P61073 1-352, limits assumed); test: cell-based or functional assay
T1 sequence (P61073 whole entry): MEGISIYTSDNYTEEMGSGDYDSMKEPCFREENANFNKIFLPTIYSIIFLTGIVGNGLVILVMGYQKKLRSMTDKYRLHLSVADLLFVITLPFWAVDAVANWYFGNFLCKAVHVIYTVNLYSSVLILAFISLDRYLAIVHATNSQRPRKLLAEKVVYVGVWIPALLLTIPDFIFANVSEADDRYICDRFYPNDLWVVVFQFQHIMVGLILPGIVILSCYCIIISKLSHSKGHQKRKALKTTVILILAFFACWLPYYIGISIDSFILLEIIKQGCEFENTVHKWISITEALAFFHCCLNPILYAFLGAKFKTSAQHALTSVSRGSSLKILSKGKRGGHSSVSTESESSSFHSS

[3] = target: T2, rat cholecystokinin receptor type A (CCKAR) (rat, UniProt P30551 1-444); test: cell-based or functional assay
T2 sequence (looked up): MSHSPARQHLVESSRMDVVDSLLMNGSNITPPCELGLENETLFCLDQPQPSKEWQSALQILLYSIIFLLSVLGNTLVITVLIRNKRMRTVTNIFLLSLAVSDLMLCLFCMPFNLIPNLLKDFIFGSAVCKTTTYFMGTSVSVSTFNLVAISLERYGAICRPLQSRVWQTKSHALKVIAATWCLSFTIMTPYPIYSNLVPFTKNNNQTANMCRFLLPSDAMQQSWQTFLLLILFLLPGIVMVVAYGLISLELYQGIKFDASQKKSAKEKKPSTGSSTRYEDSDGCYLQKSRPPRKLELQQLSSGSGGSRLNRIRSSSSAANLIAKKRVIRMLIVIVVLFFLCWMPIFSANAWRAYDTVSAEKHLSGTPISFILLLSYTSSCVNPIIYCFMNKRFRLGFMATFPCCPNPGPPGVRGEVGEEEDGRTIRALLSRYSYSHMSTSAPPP

[4] = target: T2, rat cholecystokinin receptor type A …; test: inhibition of binding of fluorescent agonist RG-CCK-8 to CHO cells expressing rat CCKAR, quantitative confocal laser scanning microscopy
Method: None of CCKAR-derived peptides served as antagonists of chemokine receptors and none could inhibit HIV-1 infection. The activity of the antagonists in inhibiting signaling through the receptor was compared to the ability to prevent agonist binding (Table 4). Inhibition of signaling was assessed in CCK-8 evoked intracellular calcium release in FURA-2/AM treated CHO cells stably transfected with rat CCKAR (Tarasova, et al. (1997) *J. Biol. Chem.* 272:14817). Inhibition of ligand binding was measured with the use of a fluorescent agonist, rhodamine green CCK-8 (RG-CCK-8) and quantitative confocal laser scanning microscopy (Tarasova, et al. (1997) *J. Biol. Chem.* 272:14817). Peptides derived from the first, second, and sixth transmembrane domains inhibited CCK-induced signaling through the CCKAR receptor. […] A peptide derived from the sixth domain, CCKAR-6-1, was active in inhibition of signaling, but had very low activity in inhibition of RG-CCK-8 binding.

[5] = target: T1, CXCR4 receptor; test: cell-based or functional assay; remark: listed apart in the source
[6] = target: T1, CXCR4 receptor; test: cell-based or functional assay; remark: listed apart in the source
[7] = target: T1, CXCR4 receptor; test: cell-based or functional assay; remark: listed apart in the source

Sequence of CXCR4 receptor (Homo sapiens, UniProt P61073) (P61073 whole entry): as the sequence (P61073 whole entry) above

CC[C@H](C)[C@H](NC(=O)CNC(=O)[C@@H](NC(=O)[C@H](Cc1ccc(O)cc1)NC(=O)[C@H](Cc1ccc(O)cc1)NC(=O)[C@@H]1CCCN1C(=O)[C@H](CC(C)C)NC(=O)[C@H](Cc1c[nH]c2ccccc12)NC(=O)[C@H](CS)NC(=O)[C@H](C)NC(=O)[C@H](Cc1ccccc1)NC(=O)[C@H](Cc1ccccc1)NC(=O)[C@H](C)NC(=O)[C@H](CC(C)C)NC(=O)[C@@H](NC(=O)[C@H](CC(C)C)NC(=O)[C@@H](NC(=O)[C@@H](N)C(C)C)[C@@H](C)CC)[C@@H](C)CC)[C@@H](C)CC)C(=O)N[C@@H](CO)C(=O)N[C@H](C(=O)N[C@@H](CC(=O)O)C(=O)O)[C@@H](C)CC [Peptide F-6-1] (H-VILILAFFACWLPYYIGISID-OH; N-terminus and C-terminus assumed)
Concentration, required for inhibition of signal transduction ([1]; SDF-1α-induced intracellular calcium release, Table 2): 10 µM

AcLLFVITLPFWAVDAVANWYFGNDDK(Rhod)D (Ac-LLFVITLPFWAVDAVANWYFGNDDK(rhodamine)D; reading uncertain) [Rhod - AcF-2-2]
Concentration, required for complete inhibition of [Ca^2+I] release ([1]; TM2-derived peptides, Table 3): 8 µM

DDIFLPTIYSIIFLTGIV-HN2 (DDIFLPTIYSIIFLTGIV-NH2) [Peptide F-1-5]
Concentration, required for complete inhibition of [Ca^2+I] release ([1]; SDF-1α-induced, Table 1): >30 µM

KAVHVIYTVNLYSSVLILAFISL-NH2 [Peptide F-3-1]
Concentration, required for complete inhibition of [Ca^2+I] release ([1]; SDF-1α-induced, Table 1): >50 µM

KVYVGVWIPALLLTLPDFIF (KVYVGVWIPALLLTIPDFIF; F-4-1 GPCR CXCR4) [Peptide F-4-1]
Antagonist activity on CXCR4 signaling, in words [1]: abolished the antagonist activity | Concentration, required for complete inhibition of [Ca^2+I] release ([1]; SDF-1α-induced, Table 1): >50 µM

LLFVITLPFWAVDAVANDD (F-2-5 GPCR CXCR4) [Peptide F-2-5]
Concentration, required for complete inhibition of [Ca^2+I] release ([1]; TM2-derived peptides, Table 3): 10 µM

LLFVITLPFWAVDAVANWYFGN (F-2-1 GPCR CXCR4) [Peptide F-2-1]
Concentration, required for complete inhibition of [Ca^2+I] release ([1]; TM2-derived peptides, Table 3): 5 µM | Decrease in antagonist potency relative to F-2-2 [1]: more than ten-fold

LLFVITLPFWAVDAVANWYFGNKK (F-2-8 GPCR CXCR4) [Peptide F-2-8]
Concentration, required for complete inhibition of [Ca^2+I] release ([1]; TM2-derived peptides, Table 3): 20 µM

VITLPFWAVDAVANWYFGNKK (F-2-4 GPCR CXCR4) [Peptide F-2-4]
Concentration, required for complete inhibition of [Ca^2+I] release ([1]; TM2-derived peptides, Table 3): >50 µM | Decrease in antagonist potency relative to F-2-2 [1]: 20 fold

KVYVGVWIPALLLTIPDFIF [F-4-1]
Concentration, required for complete inhibition of [Ca^2+I] release (SDF-1α-induced) [2]: > 50 µM

IVVLFFLCWMPIFSANAWRAYDTVDD [CCKAR-TM-6-4 (#77)]
Concentration, required for inhibition of signaling (CCK-8-induced intracellular calcium release) [3]: 5 µM | IC50 [4]: > 50000 nM

B1: CCKAR-TM-1-6 (peptide)
peptide: DDEWQSALQILLYSIIFLLSVLGNTLVITV
notes: Synthetic peptide from the first transmembrane domain of rat CCKAR
Concentration, required for inhibition of signaling (CCK-8-induced intracellular calcium release) [3]: 50 µM | IC50 [4]: 20000 nM

VILILAFFACWLPYYIGISID [F-6-1]
Concentration, required for inhibition of signal transduction (µM) (SDF-1α-induced intracellular calcium release) [5]: 10 µM | EC50 in anti-HIV-1 assay (µM) (cytoprotection, CEM-SS cells infected with HIV-1RF) [5]: > 50 µM | Concentration, required for complete inhibition of [Ca^2+I] release (SDF-1α-induced) [2]: 10 µM

HIMVGLILPGIVILSCYCIII-NH2 (cysteine pairing not given here) [F-5-1]
Concentration, required for complete inhibition of [Ca^2+I] release (SDF-1α-induced) [2]: > 50 µM

FLLSLAVSDLMLCLFCMPFNLP (also called CCKAR-2-1; CCKAR-TN-2-1) [CCKAR-TM-2-1]
Concentration, required for inhibition of signaling (CCK-8-induced intracellular calcium release) [3]: 2 µM | IC50 [4]: 500 nM

ALAFFHCCLNPILYAFLGAK-NH2 (cysteine pairing not given here) [F-7-1]
Concentration, required for complete inhibition of [Ca^2+I] release (SDF-1α-induced) [2]: > 100 µM

LLFVITLPFWAVDAVANWYFGNDD [F-2-2]
Concentration, required for inhibition of signal transduction (µM) (SDF-1α-induced intracellular calcium release) [5]: 0.2 µM | EC50 in anti-HIV-1 assay (µM) (cytoprotection, CEM-SS cells infected with HIV-1RF) [5]: 2.27 µM | Concentration, required for complete inhibition of [Ca^2+I] release [6]: 0.2 µM

Ac-LLFVITLPFWAVDAVANDD [AcF-2-5]
Concentration, required for complete inhibition of [Ca^2+I] release [6]: 10 µM

LLFVITLPFWAVDAVANDD [F-2-5]
Concentration, required for complete inhibition of [Ca^2+I] release [6]: 10 µM | potency relative to F-2-2 [7]: 20 fold

LSVADLLFVITLPFWAVDAVANDD [F-2-6]
Concentration, required for complete inhibition of [Ca^2+I] release [6]: 20 µM

VITLPFWAVDAVANWYFGNKK [F-2-4]
Concentration, required for complete inhibition of [Ca^2+I] release [6]: > 50 µM

DDQTFLLLILFLLPGIVMVVAYGL [CCKAR-TM-5-3 (#45)]
Concentration, required for inhibition of signaling (CCK-8-induced intracellular calcium release) [3]: > 50 µM

LLFVITLPFWAVDAVANWYFGNKK [F-2-8]
Concentration, required for complete inhibition of [Ca^2+I] release [6]: 20 µM | antagonist activity relative to F-2-2 [7]: 100 fold

VIAATWCLSFTIMTPYPIYSNLVPFTDD [CCKAR-TM-4-2 (#71)]
Concentration, required for inhibition of signaling (CCK-8-induced intracellular calcium release) [3]: > 50 µM

VYVGVWIPALLLTIPDFIFANDD [F-4-2]
Concentration, required for inhibition of signal transduction (µM) (SDF-1α-induced intracellular calcium release) [5]: 5 µM | EC50 in anti-HIV-1 assay (µM) (cytoprotection, CEM-SS cells infected with HIV-1RF) [5]: 0.3 µM

Ac-LLFVITLPFWAVDAVANWYFGNDDK(Rhod)D (reading uncertain) [Rhod - AcF-2-2]
Concentration, required for complete inhibition of [Ca^2+I] release [6]: 8 µM

LLFVITLPFWAVDAVANWYFGN [F-2-1]
Concentration, required for complete inhibition of [Ca^2+I] release [6]: 5 µM | antagonist potency relative to F-2-2 [7]: > 10 fold | Concentration, required for complete inhibition of [Ca^2+I] release (SDF-1α-induced) [2]: 5 µM

Reference: US7105488B1, “G protein-coupled receptor antagonists” (priority 1998, dated 2006)
